Patent US20060188503A1

Tests used:
[1] = target: KDR receptor with a gD tag at the N-terminus, on CHO cells (UniProt P35968); assay: cell-based or functional assay
[2] = target: KDR receptor on human umbilical vein endothelial cells (HUVEC) (human) (UniProt P35968); assay: cell-based or functional assay
Chain of KDR receptor on human umbilical vein endothelial cells (HUVEC) (human) (P35968 20-1356): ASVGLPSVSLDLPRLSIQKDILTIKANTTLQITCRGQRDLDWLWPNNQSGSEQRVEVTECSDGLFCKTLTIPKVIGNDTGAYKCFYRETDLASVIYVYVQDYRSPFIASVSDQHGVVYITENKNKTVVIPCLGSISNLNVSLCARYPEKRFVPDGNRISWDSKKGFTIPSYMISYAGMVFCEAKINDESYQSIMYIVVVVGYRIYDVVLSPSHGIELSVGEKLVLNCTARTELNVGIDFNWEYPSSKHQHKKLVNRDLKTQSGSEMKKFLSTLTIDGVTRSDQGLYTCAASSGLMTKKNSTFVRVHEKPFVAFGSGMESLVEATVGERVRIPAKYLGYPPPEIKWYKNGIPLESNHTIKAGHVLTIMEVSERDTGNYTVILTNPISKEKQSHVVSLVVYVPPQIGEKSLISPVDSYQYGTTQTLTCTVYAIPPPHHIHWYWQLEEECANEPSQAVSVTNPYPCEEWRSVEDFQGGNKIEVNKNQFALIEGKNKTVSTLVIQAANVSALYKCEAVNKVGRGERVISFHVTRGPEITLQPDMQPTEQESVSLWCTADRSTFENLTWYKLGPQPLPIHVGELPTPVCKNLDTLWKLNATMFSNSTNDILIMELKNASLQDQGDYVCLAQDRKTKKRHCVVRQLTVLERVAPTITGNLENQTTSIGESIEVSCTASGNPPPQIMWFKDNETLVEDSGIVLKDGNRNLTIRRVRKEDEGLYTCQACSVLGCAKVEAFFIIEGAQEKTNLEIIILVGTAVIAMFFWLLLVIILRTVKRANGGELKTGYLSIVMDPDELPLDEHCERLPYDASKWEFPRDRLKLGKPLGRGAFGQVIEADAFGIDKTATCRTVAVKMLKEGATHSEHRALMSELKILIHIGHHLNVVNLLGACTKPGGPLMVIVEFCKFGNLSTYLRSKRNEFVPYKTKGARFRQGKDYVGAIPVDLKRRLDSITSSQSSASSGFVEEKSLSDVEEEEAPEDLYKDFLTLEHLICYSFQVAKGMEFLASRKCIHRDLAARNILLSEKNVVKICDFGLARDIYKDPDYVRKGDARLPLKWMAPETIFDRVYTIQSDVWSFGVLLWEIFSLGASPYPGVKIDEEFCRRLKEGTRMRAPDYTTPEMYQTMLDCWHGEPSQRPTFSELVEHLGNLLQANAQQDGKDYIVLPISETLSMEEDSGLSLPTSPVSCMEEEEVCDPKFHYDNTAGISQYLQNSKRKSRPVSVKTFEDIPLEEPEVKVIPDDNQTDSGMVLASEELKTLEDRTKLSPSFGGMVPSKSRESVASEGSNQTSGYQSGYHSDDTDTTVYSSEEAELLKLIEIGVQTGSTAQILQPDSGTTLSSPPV

“Native VEGF (8-109) (from UniProt P15692 214-315) (ligand)” was tested, and the Phosphorylation-Inducing Activity (KIRA), concentration at midpoint absorbance [1] was 2 nM and the Endothelial Cell Proliferation Activity (HUVEC, 3H-thymidine), concentration [2] was 0.5 nM.
